Results on 15 sequences are retold here after the DeepSol protein solubility set.

The data set can be described thus: soluble on expression in E. coli; label from the status in PepcDB or PDB records.
Consider “MTDTRASAHLYPAHDLAVCTDAGSAVERITAIYDRSAQAIRARFHAFARGEALDDDTPACYPYLGITVDPKTLVSDARPSWGTVAYPGVYGTTLTRPDLFREYYRVQIERLLHYHNSPVVVGVSNRPIPLPFVVEASTIDITPEQARALGGAFPLPDLAQIDDAIANGTYRPADNEPQPLSMFTAERVDLALQRLYHYTATHPKHFQRFVLFTNYQRYVDEFAALGRKLMEEGNDEGYVRFVEPGDTVHELGTPAPDDSHRIKGLPQMPAYHLVREDRLGVTLVNIGVGPSNAKTITDHLAVLRPHCWMMIGHCGGLRRSQQLGDYVLAHAYVRDDHVLDQDLPPWVPVPPIAEIQVALQEAVARITGLSGSDMKSRMRTGTVVSTDDRNWELKYQALYTRFNQSRAIAIDMESATIAANGFRLRVPYGTLLCVSDKPLHGELKLRGMANLFYRQRVSQHLAIGMEAVRLLRENGVETLHSRKLRSFDEPAFR”, for which the “soluble on expression in E. coli” value is given as “soluble”.
Then “MSLGGDNAEYGYVEQTHPAFIAGSFTTEKNAKSRYYLLAKYEMTVLQYSALTQAECPAPSNKQRLPVVSLSWMQAMEAADKYNIWLRENAADKLPKEDGVAGFLRLPTEVEWEFAARGGLNVSTAEFRDLRYPMPEGVNAYEWFAGTQSANGQLQLSGLLKPNPLGLHDMLGNVDEMMFEPFRLNKLDRQHGQAGGYVVRGGDFRTAQGELRSSLRKERNYYDAKAAATSKTTGVRLALASSTLTSRERVSSIETSWKKLGTGSGDTSQGEDKSAVQALGTLASGVADEALKEKLKALENQLRASNQQQEETRDQAIRASLNLGAFLCTKMLDDGKYLDFLQKNYALNCSAAEQDASCPMRKGKLDEQKDRLHKLSRYYASSLVDSATLYGEPLLARQIPVMGEIISRNEQLKELKPYLQTHWVNQQAFLKTQKIDTDAWLNRCKAVQEGHHHHHH”, with “not soluble”; and “MGYESMLADIKSSLNGKISDVEDKIEKLKKAKKDIDTLQEEAITEIKEIVKPELGKHWTGTKADDFDKGREEAKSEASKIVNDKYNEYMASINGKIFDLEWDKAKYASELFIANGAADLLKKGEEFAEEVGNTISKLKWWLEHHHHHH”, with “soluble”; and “MNNILNQIKKEVNMDLLNGLWPGFKRAAFALYDDEHVYVFHHPLFLKDNDEYRVLKWEEQFKGDTCILFKDYPTAIVNMNRYKDYASLLAIVVHELFHCYQYLNKESRFPNESLGFQYPIIEENIQLRNKERICLYDAVHCKSQAEKNNYIKQFIELREQRASVMGEAFITYEYMVESIEGPAWYVEMNAYNTVCKSDESDTLRKYSGLILDVYDANCNMRKSCYSSGMLLCLLLDEILPEWKISFFNSDKSLYAFLKQNINVDLSLNNEITISKETKQILHFVQNERDKEIKQFYGEEGYDLYIVGDIKLNSFNPMNVKLNGNKVLHKTFLSVSIHNKTYMINQPVLASFEEDFKNMTQVHIIMNEKPIETKNG”, with “not soluble”.
Turning to “NDPDADRFALAARKPDGGYKMLTGDQVGTLFGHYLLTHTEASGKLVGNTIVSSTLLKKIAESMGAEYFQTLTGFKWLTNVAMQKETKEKQFLFAYEEALGYTIGSQVWDKDGLSALVAFAQLTAELATQGKCVWDQLESIYRQHGIHIN”, the “soluble on expression in E. coli” value is “not soluble”.
Next, “MALSGIYKLDDGKPYLNNCFPARNLLRVPEEGQGHWLVVQKGNLKKKPKGLVGAQAERRESLKATSFEFKGKKESRRENQVDLPGHILDQAFLLKHHCVRKPSDLCTINAKENDFKHFHSVIYINASENLLPLEAFHTFPALKELDLAFNGIKTIYVKYGDFKLLEFLDLSFNSLTVEAICDLGILPHLRVLLLTGNGLTSLPPNLAVAEQEASVTSLTSKRYILRFPALETLMLDDNRLSNPSCFASLAGLRRLKKLSLDENRIIRIPYLQQVQLYDESVDWNGGRGSPHKEPQFMLQSKPRMLEDSDEQLDYTVLPMKKDVDRTGVPPLLKSFLQERLGIHLIRRKIVKPKHHVLMSRKESWKVKSEIPKVPKQPLVLHHPRMRTTKSPSKDMLEPEAELAEDLPTTKSTSVESEMPTENLEGHSPSCRTFVPLPPICSNSTVHSEETLSHLSDTTVRLSPERPSDEDSKSTESIFLTQVSELPSSVIHKDDLELKEKDQKKPPTAPREVKGTRRKLPTAFLPSKYHGYEELLTAKPDPAFIEPKGIQKNAQALQQMLKHPLLCHSSKPKLDTLQKPYVHKEKRVLSCTSGQNGGW”: “not soluble”.
Next, “VRVLSYDKEKLNWLYKDPQGLVQGPFSLTQLKAWSDAEYFTKQFRVWMTGESMESAVLLTDVLRL”: “soluble”; “MKKDVTQKQTIIKFENGHLYTASDSCITEMPLTIKVNEFKFATIICSRNYLEELTLGFLASEGIFLKRNDLQSIHIDESKGFAHVKLTQSVGHHFEHPTKRVLASCCGKSRAFYFQNDAAIAKTSMTTILEHHHHHH”: “not soluble”.
In the case of “MVQSLNTKVDLVIDATAFTGLTDYGQIMIGDRGFEFYHAKDPRKFIQIPWEEVDYVLASVMFKGKWIPRYAIQTKKNGTYTFASKEPKRVLRAIREYVDPDHMVQSLSFFDVIKRGILSIGKKKK”, the “soluble on expression in E. coli” value was “not soluble”.
Next, “MGSDKIHHHHHHMREIAASRISAVLAELIVKISTELGEDILTALHKAYEAEESPAGRDILQSLLENARIAKEKKIPLCQDTGTAIVFAEVGQEVHVTGNFTDAINLGVRQGYEQAYLRKSIVSHPFSKRINTNDNTPAVIHTEIVPGDRLKISFMAKGSGAENMSRLFMLKPGVGREGVIEAVLETVEKAGGSPCPPIIIGLGVGATAEKAMFMAKKALLRPLGITHTDPEVAALETEVLKQVNKLGIGPLGLGGRVTALGVMAETAPTHIASLPVAVNLQCHSARHGEAVL”: “not soluble”; “MGSDKIHHHHHHAPTSIPDSALRTAAQLREQALADSTGFAVVESLTTEVGPRIAGGEADPRAVAWAKAKFKSLGFDKVWTEPVTFPKWERRSEQAAVIGAHAQPLHITALGGSPGGTVEGEIVRFENLAALQAAPAGSLAGKIAFVDYQMVKARDGKDYGNGGAVRSKGPSEAIRKGAIGFVMRSAGTDSHRVPHTGITRFDEGLTPVPAAALSVPDANQLARLAALGSTRVRLALDCGWDGTATSYNVIGEITGRSKPKEVVVIGGHLDSWDLGTGAIDDGAGVAITMAAGHLIGQLKQAPKRTIRVVAFANEEQGLYGGKAYAAAHGKDAKDMALHQIGAESDFGAGRIYAFNTGSAAPEQSRAAT”: “not soluble”.
Then “MSFLQHYKSGNLVLPSALLFHYKDIFSNADDFLVWQFFYFQNTTKMEDIATSQIATAIGKTVPEVNRSVSNLISQELLDMKTIELDGESEVLFDATLALKKLDDLLTAADETTVSSSKGISNALKDLVEDFERELGRMLSPFELEDLQKTVSDDKTDPDLVRSALREAVFNGKTNWNYIQAILRNWRHEGISTLRQVEERRKEREQANPANVTVSDDFLSAMNLWSDSDAR”, with “not soluble”.
Next, “MGHHHHHHSHMKNLINWFEIPVTDMARAIAFYEQVMQISLRRETMDGADLAVFPYAEPGPGGALIKQDDVAPVAQGVVIYLHTADLLASIERVVLAGGKCVLEPMVPGDDIGTIALFIDSEGNRIGLHQPA”: “soluble”.
Turning to “MRVFALQLESFKENLMQSLFNSIPKKSVIVLPEYVINPFFHHNMGLDVNEISDQSARAVEFLSQKCEELDLIVSAPVLLEEHSKIYKKIALISKESVKYYTQQRLIPYPHWDEESFFDNEKSAFKELLVFERDGLKFAPLFGFEAHFDEIWVQAKNQGVDVVLLSSVATFESNERWRLLCQMRAFCASCVVVRANRIGAYRQIIVEEDQKNEFLWKFYGDSFVALPNGAIEDSLEGKMGALNAQIDKNDIDEWAKLWHFRTIKEGLEHHHHHH”, the “soluble on expression in E. coli” value is given as “not soluble”.
Next, “MGSDKIHHHHHHMKVLDVIKQIQQAIVYIEDRLLEPFNLQELSDYVGLSPYHLDQSFKMIVGQSPEEYARARKMTIAANDVVNGASRLMDVAKKYRYANSNDFANDFSDFHGISPIQATTKKDELKIQQRLYIKLSTTENAPYTYRLQETDDISLVGYSRFIPTEQLSNPFNIPDFLEDLLVDGYIKELKRYNDTSPYELFVVSCPLEQGLEIFVGVPSERYPSHLESRFLPGRHYALFNLQGEIDYATNEAWYYIESSLQLTLPYERNSLYVEIYPLDISFNDPFTKIQLWLPIKQEIYDLDEGYQN”: “not soluble”.
